[ ]: non-standard residue; d: D form. Phe(2-Cl) = N[C@@H](Cc1ccccc1Cl)C(=O)O
What was measured:
VASP-EVH1 domain [1] = target: VASP-EVH1 domain (UniProt P50552); test: ITC
VASP-EVH1 domain [2] = target: VASP-EVH1 domain (UniProt P50552); test: fluorescence titration (FT)
VASP-EVH1 domain [3] = target: T1, VASP-EVH1 domain (UniProt P50552 1-115); test: fluorescence titration (FT)
T1 construct: domain: EVH1

VASP-EVH1 domain [4] = target: T1, VASP-EVH1 domain; test: ITC

Sequence of VASP-EVH1 domain (UniProt P50552) (P50552 1-115 limits assumed): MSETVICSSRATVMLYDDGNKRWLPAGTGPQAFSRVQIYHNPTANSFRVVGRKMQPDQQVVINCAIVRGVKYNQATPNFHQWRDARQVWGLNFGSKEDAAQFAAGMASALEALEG
T1 sequence (P50552 1-115 limits assumed): as above

Molecule: Ac-Phe(2-Cl)-[ProM-2][ProM-4]-OH
- Kd (VASP-EVH1 domain [1]): 9.7 µM
- ΔG (VASP-EVH1 domain [1]): -6.84 kcal/mol
- Kd (VASP-EVH1 domain [2]): 1.6 µM
- ΔG (VASP-EVH1 domain [2]): -7.91 kcal/mol

Molecule: Ac-Phe(2-Cl)-PP[ProM-9]-OH (peptide)
- Kd (VASP-EVH1 domain [1]): 8 µM
- ΔG (VASP-EVH1 domain [1]): -6.96 kcal/mol
- Kd (VASP-EVH1 domain [2]): 0.4 µM
- ΔG (VASP-EVH1 domain [2]): -8.77 kcal/mol

Molecule: Ac-Phe(2-Cl)-PP[ProM-1]-OH (peptide)
- Kd (VASP-EVH1 domain [1]): 14.1 µM
- ΔG (VASP-EVH1 domain [1]): -6.62 kcal/mol
- Kd (VASP-EVH1 domain [2]): 3.2 µM
- ΔG (VASP-EVH1 domain [2]): -7.5 kcal/mol

B1: Ac-Phe(2-Cl)-PPPP-OH (peptide)
peptide: Ac-[Phe(2-Cl)]PPPP-OH
SMILES: CC(=O)N[C@@H](Cc1ccccc1Cl)C(=O)N1CCC[C@H]1C(=O)N1CCC[C@H]1C(=O)N1CCC[C@H]1C(=O)N1CCC[C@H]1C(=O)O
- Kd (VASP-EVH1 domain [3]): 13 µM
- ΔG (VASP-EVH1 domain [3]): -6.64 kcal/mol
- Kd (VASP-EVH1 domain [4]): 18 µM
- ΔG (VASP-EVH1 domain [4]): -6.45 kcal/mol

B2: Ac-FPPPP-OH (peptide)
peptide: Ac-FPPPP-OH
notes: Starting ligand shortened to the FPPPP core motif; also called FPPPP core motif ligand
- Kd (VASP-EVH1 domain [3]): 780 µM
- ΔG (VASP-EVH1 domain [3]): -4.23 kcal/mol
- Kd (VASP-EVH1 domain [4]): 1300 µM
- ΔG (VASP-EVH1 domain [4]): -3.94 kcal/mol

Source: patent US20170320910A1 (published 2017)
